Biological target: acetylcholine-binding protein (AChBP) from Lymnaea stagnalis, carboxy-terminal hexahistidine-tagged (Lymnaea stagnalis, UniProt P58154 20-229)
Experiment: SPR

acetylcholine-binding protein (AChBP) from Lymnaea stagnalis, carboxy-terminal hexahistidine-tagged, sequence (P58154 20-229): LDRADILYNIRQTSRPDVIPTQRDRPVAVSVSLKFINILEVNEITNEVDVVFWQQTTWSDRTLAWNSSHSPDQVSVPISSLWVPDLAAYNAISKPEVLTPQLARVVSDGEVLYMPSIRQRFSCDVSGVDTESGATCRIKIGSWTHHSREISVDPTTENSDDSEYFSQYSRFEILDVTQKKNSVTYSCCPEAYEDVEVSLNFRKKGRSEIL

B1: α-bungarotoxin (natural protein)
chain: IVCHTTATSPISAVTCPPGENLCYRKMWCDAFCSSRGKVVELGCAATCPSKKPYEEVTCCSTDKCNPHPKQRPG
- binding result: binds

From paper PMC2684811 (Analytical biochemistry, 2009)
